Measured values reported in patent publication US12618081B2, “Brown marmorated and harlequin stink bug pheromone enzyme synthesis and uses thereof” (VIRGINIA TECH INTELLECTUAL PROPERTIES, INC., priority 2019, dated 2026).

Columns and labels:
H. halys = conditions: added to a trap containing the two principle components of the H. halys pheromone; cited from earlier work
[1] = Kinetic analysis of E. coli expressed MhTPS with [1-3H]-(E,E)-FPP; type: biochemical, Murgantia histrionica; conditions: (E,E)-FPP as the substrate
Description: (§1) Assays with heterologously expressed protein were performed in assay buffer (see above) in a total volume of 250 μl with partially purified protein, 1 mM DTT, and 50 µM allylic substrate [(E,E)-, (Z,E)- or (Z,Z)-FPP] and incubated at 30° C. for 1 h with a 250 μL hexane overlay. Assays were stopped on ice and compounds extracted by mixing (vortex) at maximum speed for . . . 15 sec. Phases were separated by centrifugation at 4000×g for 10 min and the hexane phase was removed and dried over MgSO4 One μl of liquid sample was injected in splitless mode and analyzed by GC-MS. For identification of the MhTPS product, assays were scaled up by incubating 1 mL protein in a 7 mL screw top test tube and the obtained hexane extract was used for further analysis. To determine enzyme kinetic parameters, assays were performed in a final volume of 50 μL with 0.3 μg partially purified, E. coli expressed MhTPS enzyme and increasing concentrations of [1-3H]-(E,E)-FPP (64 uCi mmol-1). Assays were incubated in triplicate at 30° C. for 5 min prior to extraction of the reaction product with 250 μl hexane. Quantification of the radioactive product were as described by Tholl et al. (Tholl et al., 2005). Calculation of Km and Vmax values was performed by rectangular hyperbolic regression analysis using the Hyperbolic Regression Analysis (HYPER 1.01) software (J. S. Easterby, University of Liverpool).

[2] = TPS activity assay of recombinant M. histrionica IDS-like proteins, GC-MS of hexane extracts; type: biochemical, Murgantia histrionica
Description: as §1
(§2) GC-MS analysis was performed by liquid injection at 240° C. running in split 5 mode and separated on a GC-2010 gas chromatograph (Shimadzu, Kyoto, Japan) using a 30 m×0.25 mm i.d.×0.25 μm film Zebron ZB-XLB column coupled with a QP2010S mass spectrometer (Shimadzu). The GC program was as follows: 40° C. with 2 min hold, then raised to 220° C. at 5° C./min, then raised to 240° C. at 70° C./min followed by a 2 min hold time. Mass spectrometry was performed with an ion source temperature of 240° C., interface temperature of 280° C., electron ionization (EI) potential of 70 eV and scan range of 50 to 400 atomic mass units. Helium was used as a carrier gas at 1.9 mL/min. Terpene olefin products were identified by comparison of retention times and mass spectra with those of authentic standards.

[3] = IDS (prenyltransferase) activity assay of recombinant M. histrionica proteins, LC-MS/MS; type: biochemical, Murgantia histrionica; conditions: IPP and DMAPP as substrates
Description: (§3) For enzyme assays, 96 μl of partially purified protein were mixed with 2 μl 50 μM isopentenyl diphosphate (IPP; Sigma) and 2 μl 50 μM dimethylallyl diphosphate (DMAPP; Sigma) and incubated at 30° C. for 2 h. Analysis of IDS enzyme products was done using an Agilent 1260 HPLC system (Agilent Technologies) coupled to an API 5000 triple-quadrupole mass spectrometer (AB Sciex Instruments) according to the protocol described by Beran et al. (Beran et al., 2016).

[4] = TPS activity assay of recombinant H. halys IDS-like proteins, GC-MS; type: biochemical, Halyomorpha halys
Description: Assays with heterologously expressed protein were performed in assay buffer (see above) in a total volume of 100 μl with partially purified protein, 1 mM DTT, and 50 μM allylic substrate [(E,E)-, (Z,E)- or (Z,Z)-FPP] and incubated at 30° C. for 1 h with a 100 μL hexane overlay. Assays were stopped on ice and compounds extracted by mixing (vortex) at maximum speed for 15 sec. Phases were separated by centrifugation at 4000×g for 10 min and the hexane phase was removed and dried over MgSO4. One μl of liquid sample was injected in splitless mode and analyzed by GC-MS.
as §2

[5] = IDS activity assay of recombinant H. halys HhIDS2, LC-MS; type: biochemical, Halyomorpha halys; conditions: IPP and DMAPP
Description: as §3, with “μl […] dimethylallyl diphosphate” for “μl 50 μM dimethylallyl diphosphate”, “et al. (2016).” for “et al. (Beran et al., 2016).”

For `CCC\C=C/C=C/C=C/C(=O)OC` [MDT, methyl (E,E,Z)-2,4,6-decatrienoate], the “increase in captured bugs” value (H. halys) is listed as 70%.

B1: MhTPS1: IDS-type sesquiterpene (sesquipiperitol) synthase of Murgantia histrionica, 385 aa, GenBank MG662378, SEQ ID NO: 1 (protein)
chain: MVSIAAKSLPKLSGAVFGQFSRRKQLIQRHWLDTRTDQYYDVLRRIVVPECKNIASDVPEYPERIEKLLYYTNPAFSDAWNFTTELIYRTVADESHQTEENITKMYLIRATMDLLFTMSAVLDDISDRSEFRKGKKGWHMICQGGESTALYDGTQMGLFPLYLLKQYFKNDPGYSRLLETVVMTYIKLTIGQTIDVLGQFKKSPSMAEYKRINYYKAGQFVAAGSELAVIHAGITSQDLIDKTVEIFTIAGQIIQTWDDFNDYYSSSEQNGKLSCDFMNAGTTWVSAKAMEVFTPSQAVKFMECYGSDDQSKMKTVQELYDEIDMPKLYTEYVLENYNRCETLIKELPHDRLREACSSYMEWLVVRETPDEDSEHKVALCLNISG
modifications: Murgantia histrionica “harlequin bug” Terpene Synthase (TPS)
With B1 the Vmax [1] was 675.3±53.7 pkat/mg, the kcat [1] was 0.03 ± 0.003 s⁻¹ and the Km ([1]; read-out: apparent Km) was 4 ± 0.7 µM. The “sesquiterpene synthase activity, product” value ([2]; (E,E)-FPP as a substrate, N-terminal His-tag, E. coli) was “a terpene alcohol as its main product”, the “pH of highest activity” value ([2]; (E,E)-FPP as substrate) was 7 and the sesquipiperitol production ([2]; (Z,E)-FPP as substrate) was “at lower levels”. For the same molecule, the enzymatic activity ([2]; (Z,Z)-FPP as the substrate) was “almost no enzymatic activity”, the “conversion of GPP, products” value ([2]; GPP as substrate) was “several monoterpene olefins” and the “increase of activity (relative amount of sesquipiperitol)” value ([2]; between 0.1 and 10 mM Mg^2+, (E,E)-FPP as substrate) was “approximately 2 fold”. The “formation of terpene products” value ([2]; incubated with IPP and DMAPP) was “no formation of terpene products” and the “IDS activity: formation of FPP” value [3] was “not observed”.

B2: HhIDS2: bona fide IDS enzyme of Halyomorpha halys making (E,E)-FPP, 403 amino acids, GenBank MG870389 (protein)
chain: MPFAKLCVQKLSNPLMKLCYPNLNGRLSLSKFSNSLDNSTFKFLSCNPHTICREHNTVAIRPQTITKDDKRDFMAVFPDIVRDLTQQDPGISDLSTLISKLMQYNVSGGKKVRGLTVVYSYRMLAPDHDLTPENIRLAQILGWCVEMLQGFFVVIDDLTDQSVTRRGRPCWYRLPGIGLRASSDALLIQAGTFQLLQQHCKDKEFYVDLVELFLDATRRTTYGQTLDLVSSFPNITHLTMDRYNFITKYKTSYYTFHLPVAIAMYMAGIYNTELHRQAKSVLLEMGHYFQVQDDYLDVFSDEEVSGKKGTDIQEGKCTWLAIIAFQRASPSQREILESCYGSKDPEKIQKVKDIFIEIGLPAVFHAYEEETYNLITRQIQQLSEGLPHELFLTLLHKMYGRKQ
modifications: HhFPPS
notes: bona fide IDS enzyme of Halyomorpha halys making (E,E)-FPP, 403 amino acids, GenBank MG870389
With B2 the terpene product formation ([4]; FPP isomers as substrate) was “did not produce a terpene product” and the “IDS activity: product” value [5] was “only (E,E)-FPP”.

B3: HhIDS1: IDS-type sesquiterpene synthase of Halyomorpha halys, 377 amino acids, main product elemol, GenBank MG917093 (protein)
chain: MIPKTLGNFTGYVLRIALNKKHVNVRHKLDTDIGKYYQTLNDVVIPECMEFVKDAQGLPQRMKECIGYTTPYCYEGWNFCVELLYKTVADKPHQTEENLKKMRILRVLSDMSHSMHFILDDYADKAEFRQGKKIWASICEGGQEAAIYDTFTVNYLINCMLQRHFRNDPGFTKMCEMFSWVNGNSGIGQVLDILDHKNSDFSDYASWKNKVEYKSRNTMCAFPVLGLLHAGLTCNDLIHKTMDIFGDYGLMFQVWNDFMDFYSVQEESGKGNYDCKNNVKTWATITAMSHFNPAQAKEFRDCYGTNDPAKRSRVRELFDEIDLPRKYLDYLRNIRVTVEKKISELSDARVRDASTSYLEWLHGNGHHDVELEILKAP
modifications: HhTPS2
notes: IDS-type sesquiterpene synthase of Halyomorpha halys, 377 amino acids, main product elemol, GenBank MG917093
In the case of B3, the sesquiterpene products ([4]; either (E,E)-FPP or (Z,E)-FPP as substrates) is reported as “several sesquiterpene olefins and alcohols at low abundance”.
